For assay [1], the target named is T1, human CTLA4 expressed on the cell surface of CHO cells (human, UniProt P16410 36-223).
T1 construct: whole, on cells; also called CHO-huCTLA4; huCTLA4
T1 sequence (looked up): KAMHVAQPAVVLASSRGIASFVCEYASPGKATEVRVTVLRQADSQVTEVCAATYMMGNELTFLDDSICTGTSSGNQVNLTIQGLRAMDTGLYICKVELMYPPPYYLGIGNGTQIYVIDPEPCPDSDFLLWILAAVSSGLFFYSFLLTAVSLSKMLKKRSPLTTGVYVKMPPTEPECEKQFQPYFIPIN
The assay can be described thus: FACS, cells expressing human CTLA4, assay pH 6.0, MFI; lot 6978 in Glu buffer, T0; unit from the axis Log[ng/mL]. How it is done:
(§1) The amount of bound antibodies was quantified using anti-human IgG antibody conjugated to fluorophores. The MFI in each reaction was proportional to the amount of antibodies bound. The EC₅₀ value (in ng/mL) for binding to human CTLA4 on cells was determined by MFI of the singlets population against antibody concentration with a Prism variable slope of four-parameter dose-response curve, which was calculated using the nonlinear fit (variable slope, four parameters) model built into GraphPad Prism software (version 7.03).
(A flow cytometer gives signals particle by particle.)

The target of assay [2] is T2, recombinant human CTLA4 extracellular domain (human, UniProt P16410 36-161).
T2 construct: extracellular domain; also called huCTLA-4
T2 sequence (looked up): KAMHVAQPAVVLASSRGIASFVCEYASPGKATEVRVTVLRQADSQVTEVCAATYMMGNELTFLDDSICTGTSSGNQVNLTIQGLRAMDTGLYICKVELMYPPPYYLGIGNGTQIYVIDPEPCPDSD
The assay can be described thus: ELISA, wells coated with human CTLA4, assay pH 7.4; lot 6978 without test buffer; curve still rising at log 3 (OD450 about 0.2), no plateau; same column repeated in FIG. 9E and FIG. 9F; unit from the axis Log[ng/mL]. As for the experimental part:
(§2) Both ELISA and FACS analysis were used to measure the binding activity. […] The amount of bound antibodies was quantified using anti-human IgG antibody conjugated to HRP. The absorbance at 450 nm in each measurement was proportional to the amount of antibodies bound. […] EC50 value (in ng/mL) for binding to human CTLA4 was determined by absorbance at 450 nm against antibody concentration with Prism variable slope of four-parameter dose-response curve, which was calculated using the nonlinear fit (variable slope, four parameters) model built into GraphPad Prism software (version 7.03). The buffers tested included His buffer (His), Tris buffer (Tris), Glutamine buffer (Glu) and no buffer.

In assay [3] the target is T1, human CTLA4 expressed on the cell …. The assay can be described thus: FACS, cells expressing human CTLA4, assay pH 7.4, MFI; lot 6978 in Glu buffer, T2W; unit from the axis Log[ng/mL]. How it is done:
as §1

Assay [4] shares this target. Description: FACS, cells expressing human CTLA4, assay pH 6.0, MFI; lot 6978 in Tris buffer, T2W; unit from the axis Log[ng/mL]. As for the experimental part:
as §1

Assay [5] shares this target. Description: FACS, cells expressing human CTLA4, assay pH 7.4, MFI; lot 6978 control without test buffer; same column repeated in FIG. 10E and FIG. 10F; unit from the axis Log[ng/mL]. How it is done: as §1
The target is the same in assay [6]. The assay can be described thus: FACS, CHO cells expressing human CTLA4 (CHO-huCTLA-4), pH 7.4, MFI; curve still rising at log 5, no plateau; no unit in the table, unit from the axis Log Antibodies [ng/ml]. How it is done:
(§3) The amount of antibodies bound on the cells was quantified using anti-human IgG antibody conjugated to fluorophores. EC₅₀ values at pH 6.0 and 7.4 for binding to cells were calculated using the nonlinear fit (variable slope, four parameters) model built into GraphPad Prism software (version 7.03). The expression levels of human CTLA4 or cynomolgus CTLA4 on the surface of the CHO cells were determined using a BD QuantiBRITE™ PE kit.
At least two independent duplicate FACS experiments were performed for each antibody using each of the cell lines. The binding activities at different concentrations of the antibodies are plotted in these figures.

For assay [7] the target is unchanged. Description: FACS, cells expressing human CTLA4, assay pH 7.4, MFI; lot 6972 in Glu buffer, T0; unit from the axis Log[ng/mL]. As for the experimental part: as §1
Assay [8] has as its target T3, cynomolgus CTLA4 expressed on the cell surface of CHO cells (cynomolgus, UniProt G7PL88 36-223).
T3 construct: whole, on cells; also called CHO-cynoCTLA4
T3 sequence: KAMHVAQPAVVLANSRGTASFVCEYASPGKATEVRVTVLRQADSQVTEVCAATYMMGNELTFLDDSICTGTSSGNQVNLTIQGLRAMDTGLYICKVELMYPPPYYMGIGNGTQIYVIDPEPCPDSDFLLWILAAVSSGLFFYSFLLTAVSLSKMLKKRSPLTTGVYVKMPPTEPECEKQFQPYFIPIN
The assay can be described thus: FACS saturation, CHO-cynoCTLA-4, pH 7.4, MFI, titration up to about log 6.5; reaches about 330000 against about 700000 for Ipi Analogue; no unit in the table, unit from the axis Log Antibodies [ng/ml]. How it is done: as §3
Finally, saturations of the antibodies on the CHO cells expressing human or cynomolgus CTLA4 at pH 7.4 were also measured by FACS (FIGS. 8A-8B).

Assay [9] has as its target T2, recombinant human CTLA4 extracellular …. The assay can be described thus: ELISA, wells coated with human CTLA4, assay pH 7.4; lot 6972 in Glu buffer, T0; unit from the axis Log[ng/mL]. As for the experimental part:
as §2
On the technique in general: ELISA stands for enzyme-linked immunosorbent assay.

Assay [10] concerns the target T1, human CTLA4 expressed on the cell …. Description: FACS, cells expressing human CTLA4, assay pH 6.0, MFI; lot 6972 in His buffer, T0; unit from the axis Log[ng/mL]. As for the experimental part:
as §1

Assay [11] concerns the target T2, recombinant human CTLA4 extracellular …. Description: ELISA, wells coated with human CTLA4, assay pH 7.4; lot 6972 in Glu buffer, T2W; unit from the axis Log[ng/mL]. How it is done:
as §2

Consider two molecules from patent US20210403565A1 (BIOATLA, published 2021).

In general, EC50 refers to the concentration giving half of the maximal effect.

B1: BA-087-08-32 (antibody, V domains shown)
VH: EVQLVQSGAEVKKPGATVKISCKVSGFTFSHYTMHWIRQSPSRGLEWLGFISYDGNYKYYADSVKGRFTISRDNAKNSLYLQMNSLRAEDTAVYYCARTGWLGPFDYWGQGTLVTVSS
VL: EIVMTQSPATLSVSPGERATLSCRASQSVGSSYLAWYQQKPGKAPKLLIYGAFSRATGVPSRFSGSGSGTDFTLTISSLQPEDFATYYCQQDGSSPWTFGQGTKVEIK
notes: Detected with anti-human IgG and a molecular weight of 146 kDa was used in SPR, so it was tested as a whole IgG; also called BA-087-08-032; BA-087-08-32 (# 6978)
As to B1, the EC50 in assay [1] is around 0.15 µg/mL; in assay [2] it was 1.14 µg/mL; in assay [3], 1.41 µg/mL; in assay [4] it was around 0.152 µg/mL; in assay [5], 0.868 µg/mL; in assay [6] it was 41.1 µg/mL.

B2: BA-087-05-19 (antibody, V domains shown)
VH: EVQLVESGGGLVQPGGSLRLSCAASGFTFSHYTMHWVRQAPGKGLEWVSFISYDGNNKYYADSVKGRFTISRDNSKNTLYLQMNSLRAEDTAVYYCARTGWLGPFDYWGQGTLVTVSS
VL: AIQLTQSPSSLSASVGDRVTITCRASQYVGSSYLAWYLQKPGQSPQLLIYGAFSRATGIPARFSGSGSGTEFTLTISSLQSEDFAVYYCQQDGSSPWTFGQGTKVEIK
notes: Detected with anti-human IgG and a molecular weight of 146 kDa was used in SPR, so it was tested as a whole IgG; also called BA-087-05-019; BA-087-05-19 (# 6972)
As to B2, the 50% effective concentration (EC50) stood at 0.462 µg/mL in assay [7]; 13 µg/mL in assay [8]; 0.11 µg/mL in assay [9]; 0.291 µg/mL in [10]; 0.022 µg/mL in assay [11].
